Molecular target: human CD81 tetraspanin membrane receptor, CD81-GlyGly-rho-1D4 (human) (UniProt P60033)
Experiment: ELISA; plates coated with 100 ng rho-1D4 antibody; 100 ng purified CD81 captured by its C-terminal tag; HCV-E2 added at 0.4 to 20 nM for 2 h at room temperature in 25 mM Tris-HCl pH 7.5, 144 mM NaCl, 0.05% DM; detected with goat anti-E2 polyclonal antibody; nonspecific binding (no rho-1D4) subtracted; non-linear regression

Sequence of UniProt P60033 (P60033 whole entry): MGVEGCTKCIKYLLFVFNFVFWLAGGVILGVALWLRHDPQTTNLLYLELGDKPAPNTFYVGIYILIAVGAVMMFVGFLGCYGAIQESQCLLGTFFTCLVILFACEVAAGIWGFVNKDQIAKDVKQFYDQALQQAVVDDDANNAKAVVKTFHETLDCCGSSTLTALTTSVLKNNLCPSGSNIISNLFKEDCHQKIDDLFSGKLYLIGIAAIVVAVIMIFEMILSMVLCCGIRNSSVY

Question: With “Recombinant HCV E2 envelope protein (from UniProt P27958 384-746) (ligand)” as the substance, how does the Kd read?
Answer: 3.8 nM
